According to US20170037092A1:

Molecular target: HLA-A*02:01 (human)
Test: UV-ligand exchange ELISA

Work on SLTETIEGV (modifications not checked) […] yielded a peptide exchange yield of 20 to 50%.
